Molecular target: BTN3A1 full intracellular domain (human)
Test: ITC; nanoITC; 300 μM BTN2A1 ID271 titrated into a mixture of 60 μM BTN3A1 BFI and 120 μM 4-M-HMBPP; independent fit (NanoAnalyze)

KD with 4-M-HMBPP: 190 µM | N with 4-M-HMBPP: 0.08 | dH with 4-M-HMBPP: -100 kJ/mol
Substance: BTN2A1 intracellular domain (domain or fragment)

— paper PMC10665462
